Drawing on paper PMC5062964, this text covers Kd for two molecules.

Broadly, the Kd is a measure of binding affinity in units of concentration. Read a low Kd as higher affinity.

In one data set the target is PU.1ΔN167 (ETS domain) (mouse (murine), UniProt P17433 167-272). As to the kind of experiment: competitive fluorescence anisotropy. On the technique in general: Fluorescence polarisation rises when a labelled molecule tumbles more slowly, as on binding a larger partner.
The target in data set [1] is T1, Ets-1ΔN331 (minimal ETS domain) (mouse (murine)?, UniProt P27577 331-440).
T1 sequence: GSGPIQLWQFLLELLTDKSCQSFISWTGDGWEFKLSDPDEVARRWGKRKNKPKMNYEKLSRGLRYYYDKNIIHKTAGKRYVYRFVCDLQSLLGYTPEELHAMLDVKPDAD
As to the kind of experiment: competitive fluorescence anisotropy.

B1: SC1 unmethylated (dsDNA)
DNA 1: CGGCCAAGCCGGAAGTGAGTGCC
DNA 2: GGCACTCACTTCCGGCTTGGCCG
Consider B1, for which the Kd is 0.32 ± 0.17 nM with PU.1ΔN167 (ETS domain) and 0.14 ± 0.03 nM in data set [1].

B2: SC1 hemi-methylated, forward (5'-GGAA-3' strand) (dsDNA)
DNA 1: CGGCCAAGCCGGAAGTGAGTGCC
DNA 2: GGCACTCACTTCCGGCTTGGCCG
modifications: 5-methyl-dC at strand 1 position 10 (CpG)
Take B2: in the data set with PU.1ΔN167 (ETS domain), binding was characterised by a dissociation constant (Kd) of 1.5 ± 0.9 nM.
